Assay results: article PMC3675580, “Stabilization, Characterization, and Selective Removal of Cystatin C Amyloid Oligomers*” (The Journal of Biological Chemistry, 2013)
Changes are numbered by the printed parent chain. In names and notes the source's numbering stands. Several values for one entry are separate records, joined by “and”; a condition that tells them apart may be missing. Equal entries are not always repeated.

Columns and labels:
[1] = target: stab1 cystatin C (L47C/G69C), disulfide-stabilized monomer (human) (UniProt P01034); assay: MALDI-TOF MS; isolated oligomers 1 mg/ml in 150 mM ammonium bicarbonate pH 7.8 (nonreducing), matrix 2,6-dihydroxyacetophenone
[2] = target: stab1 cystatin C (L47C/G69C), disulfide-stabilized monomer (human) (UniProt P01034); assay: native gel or EMSA; agarose gel electrophoresis under native conditions; stab1 cystatin C 0.2 mg/ml (15 uM) in PBS pH 7.4, 0.5 or 1.0 M GdnHCl, 1:1 molar equivalents of DTT, 24 h at 40 C
[3] = target: Mammalian legumain (EC 3.4.22.34) (pig)
[4] = target: the molecule itself; assay: SDS-PAGE in 0.1% SDS of unboiled, nonreduced samples; 1 mg/ml in 50 mM sodium acetate pH 4.0, 100 mM NaCl, 48 C, 900 rpm, 4 h; gel run at 4 C, silver-stained
[5] = target: the molecule itself; assay: SEC; SEC at the end of the purification of refolded L68Q cystatin C

“stab1 cystatin C (L47C/G69C), disulfide-stabilized monomer (from UniProt P01034 27-146)” showed a stoichiometry N (monomeric subunits) [1] of 2.

“stab1 cystatin C (L47C/G69C), disulfide-stabilized monomer (from UniProt P01034 27-146) (natural protein)” was tested, and the stoichiometry N [2] was 2 and the stoichiometry N (monomeric subunits) [1] was 4 and 3.

For “stabilized cystatin C decamer (stab1, L47C/G69C) (from UniProt P01034 27-146) (complex)”, the inhibitory capacity toward legumain (fluorogenic substrate Z-Ala-Ala-Asn-AMC), equal mass concentrations [3] was 93%.

Work on “stabilized cystatin C dimer (stab1, L47C/G69C) (from UniProt P01034 27-146) (complex)” yielded an inhibitory capacity toward legumain (fluorogenic substrate Z-Ala-Ala-Asn-AMC), equal mass concentrations [3] of 102%.

For “stabilized cystatin C trimer (stab1, L47C/G69C) (from UniProt P01034 27-146) (complex)”, the inhibitory capacity toward legumain (fluorogenic substrate Z-Ala-Ala-Asn-AMC), equal mass concentrations [3] was 99%.

B1: stabilized cystatin C high molecular weight oligomers (stab1, L47C/G69C) (complex)
chain: SSPGKPPRLVGGPMDASVEEEGVRRALDFAVGEYNKASNDMYHSRACQVVRARKQIVAGVNYFLDVELCRTTCTKTQPNLDNCPFHDQPHLKRKAFCSFQIYAVPWQGTMTLSKSTCQDA
modifications: intermolecular disulfide bridges (the paper: most likely Cys47-Cys69)
In the case of B1, the inhibitory capacity toward legumain (fluorogenic substrate Z-Ala-Ala-Asn-AMC), equal mass concentrations [3] is reported as 55%.

B2: human wild type cystatin C (natural protein, UniProt P01034 27-146, looked up)
chain: B1 chain with C47L, C69G
notes: cystatin C, human, wild type; Mr 13,343; also called wt cystatin C; wt monomer; source: E. coli periplasmic extract, purified (ion-exchange, SEC), lyophilized
B2: binds [4].

B3: L68Q cystatin C (natural protein, human, UniProt P01034 27-146, looked up)
chain: B1 chain with C47L, L68Q, C69G
notes: cystatin C, human, hereditary cystatin C amyloid angiopathy variant L68Q; also called L68Q cystatin C variant; disease-associated L68Q variant
For B3, the “stoichiometry N” value [5] was 2.
